Test results as given in paper doi:10.1101/2024.09.30.615892.

Experiments:
[1] = system: EppR-His6 (Acinetobacter baumannii ATCC17978); assay: EMSA
[2] = system: T1, EppR-His6 (Acinetobacter baumannii ATCC17978), ORF:cce4f89b; assay: EMSA
T1 sequence: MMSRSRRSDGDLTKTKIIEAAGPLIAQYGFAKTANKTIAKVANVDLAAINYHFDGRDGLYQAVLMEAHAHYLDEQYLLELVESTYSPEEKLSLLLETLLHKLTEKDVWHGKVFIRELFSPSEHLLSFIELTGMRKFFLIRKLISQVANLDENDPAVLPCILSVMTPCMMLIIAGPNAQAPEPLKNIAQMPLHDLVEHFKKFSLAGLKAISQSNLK

Substance | binding [2] | other results
eppR promoter |  | Kd [1]: 123 nM
ACCATTTTGAAATCGTAACAAATTCAAGATAAATGGTAGAGTTGAGTAAAGAGAAATTCAAATTTAAAAAATTGTGGATAAACAAGTAAAAGTCAAAAATTGTCGCAGTATCTGGCGCATTTGGTCGGAAATTCTTCAGTTCTGATCTAG (double strand) [umuC2015 promoter] | binds | 
TATTTCATCCCCTTACTCATTAACTGAAATCTGCATTTTGAATTTGTAACATAATCAAGTTAACAAAATTACGGGCTGATATCTAGGGGAGTTTCAGTTGTTCGTCGAAATTATAGGTAGGAGATAAAATCTATGAAATGTCAGTTATTGATATGGAAATGTCTGAAAATGATAAGTTTTAATTGGTTATGATCGGAAATATAAGAGCTATATTTAATGGATGAGTTGAGTCTTTTAAATGTAGTAATGC (double strand) [umuC2008 promoter] | binds | 
AATAAAGTAGAGCACAGCTTAATTTCAAATTTAAAAGTTGTGGATAAACAAATTGATCTAGAAAAAATGATCAACGGATAAAGGAATATTTAATTTTTTTATGCGGGCCTCTACCGCTTATAGAACAGTTTTTAAACAATTTTACTTATAGCTTCATTCA (double strand) [umuDC0636-0637 promoter] | binds | 
ACTCATATTTAAGTGTTCAGAATTTCATTGATAAAAATCAAAACAGTCAGTAATAAGAACTATTTCACAATAGGTTTTGATTCTCTTCAAATTACCATTTCCGTTTTAACATCCCTGTTAAAAGCAAAATGGATTAAAATCTGATCATGAAATTTATTGTTATGCAAAAAAAATATTTCGTCAACTTGAAAATGTAACTTTTTCAAGTTACATTGTTTGTGTAGGATTTGAACGGTGAAATGGAGGCGAT (double strand) [umuDAb (1389) promoter] | binds | 
ATGTTTCCCCTAGCTTGATTTTGTAACATATTCAAGATGATATTCTAGAGATGAGCATAAATTCAAATTTAAAAAGTTGTGGATAAACAAGGGGAAGTCAAAAACTGACGTAGCCAAAAGTGCATTTGGTCGGAATTTATGCATTGCTGTACAGTGAGGCAACCATAGCATGGGAATCAAAATATTAGCTTTGAGATTGTAAATCTTTGTGGAACTTAATGTTCCACACTATTGCTTATTTATAGCAAAT (double strand) [umuDC1174-1173 promoter] | binds | 
CTTTTTTATTCATCTTTTTGGCCTTCTTATTAAATTCAAATTTACATAGTTTAAATTCAATTTAAATTTAAATTACCTTAATCTTTGAATAAAAGATATACTTTTATGATGAAATAAAATTAGGTTTAAACATGTCC (double strand) [eppR promoter] |  | Kd [2]: 123 nM
